Measured values from the supplement of paper PMC9732359.
± gives the uncertainty stated by the source.

Experiment: protein stability index of a GFP-peptide fusion (yeast GPS) (PSI 1-4); higher = more stable; sorted into four equal gates, so the index is relative within each strain
Outline: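 Plasmids isolated from each sorting gate were PCR-amplified and Illumina-sequenced, and barcodes assigned the reads to strains. The gates, four of equal size, were set by GFP/Cherry fluorescence ratio on mid-log cultures in leucine-free medium. These cultures were yeast carrying a pooled library of tiled 17-residue yeast protein peptides fused downstream of GFP on a plasmid that also expresses Cherry. The protein stability index is the sum of every gate's read frequency times its gate number.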

| Sequence | protein stability index (doa10∆) | protein stability index (pdr5∆) | protein stability index (san1∆) | protein stability index (ubr1∆) |
| --- | --- | --- | --- | --- |
| PSVAAEYVYFFNNTSVI [RPC40] | 2.09 ± 0.056 | 1.48 ± 0.057 | 1.54 ± 0.088 | 1.79 ± 0.039 |
| LHYLKKFKHIDDKYGRK [SRP72] | 2.91 ± 0.061 | 2.88 ± 0.057 | 3.07 ± 0.055 | 2.85 ± 0.041 |
| TLRCSVVEACGNIVAEL [YCS4] | 1.87 ± 0.095 | 2.19 ± 0.093 | 2.17 ± 0.15 | 1.55 ± 0.062 |
| GRQTVLIKDNSAMVTTA [SRB2] | – | 1.8 ± 0.28 | – | – |
| HRDKNKMDMICRNINRK [DIS3] | 2.32 ± 0.081 | 2.99 ± 0.17 | 2.41 ± 0.083 | 3.33 ± 0.12 |
| KETWLHELSSSHTSLVK [SRB8] | 1.81 ± 0.05 | 2.04 ± 0.056 | 1.87 ± 0.083 | 1.8 ± 0.055 |
| FAGVASKKVTSGVPRLK [RPO21] | 3.03 ± 0.2 | 3.08 ± 0.2 | – | – |
| DRFKPNLDIAKDLIRTD [MED4] | 3.38 ± 0.19 | 3.34 ± 0.19 | 2.82 ± 0.11 | 2.96 ± 0.14 |
| SPRNTYQCAMGKQAIGA [RET1] | 1.94 ± 0.14 | 2.57 ± 0.14 | 2.83 ± 0.15 | – |
| KNEEAEIEVDEMEVDAE [RPN1] | 3.4 ± 0.14 | 3.51 ± 0.11 | 3.19 ± 0.12 | 3.62 ± 0.1 |
| AERDSQGGFYKQQDAEE [UBP6] | 3.35 ± 0.08 | 3.38 ± 0.089 | 3.07 ± 0.077 | 3.28 ± 0.055 |
| IRNARSIRAEAVAASST [POP1] | 3.13 ± 0.24 | 2.54 ± 0.23 | 2.5 ± 0.14 | 2.19 ± 0.1 |
| QLAVKIINKVLDYQETY [YJL039C/NUP192] | 1.94 ± 0.11 | 2.73 ± 0.096 | 2.51 ± 0.086 | – |
| TNSNNTPLQSQLNLNNL [PGD1] | 3.01 ± 0.071 | 3.01 ± 0.059 | 3 ± 0.043 | 3.05 ± 0.042 |
| KQIDIPNFNVEIMQQKF [ECM29] | 2.4 ± 0.25 | 2.5 ± 0.16 | 3.03 ± 0.11 | 3.11 ± 0.097 |
| DVKKRTYEAIDVPGREL [RPB2] | 1.99 ± 0.15 | 3.35 ± 0.16 | 2.62 ± 0.23 | 3.57 ± 0.17 |
| KAEMPPEHLRKIINTHS [PRP8] | 1.94 ± 0.089 | 1.74 ± 0.058 | 1.82 ± 0.12 | 1.89 ± 0.061 |
| LCLEKLMCLSSKYCEKS [YCS4] | 1.55 ± 0.051 | 2.34 ± 0.087 | 2.27 ± 0.18 | 1.92 ± 0.059 |
| PDGSFEDWSVEELIVDL [RPO26] | 3.42 ± 0.17 | 2.06 ± 0.16 | 3 ± 0.13 | 2.84 ± 0.081 |
| EKFSSFIESIVVDFKNK [SNF12] | 2.69 ± 0.065 | 2.84 ± 0.078 | 2.74 ± 0.081 | 2.77 ± 0.061 |
| IFSQMSRLLDILEDYCY [ISW2] | 1.66 ± 0.048 | 2.8 ± 0.094 | 2.03 ± 0.11 | 3.01 ± 0.092 |
| EVLEKDAAIVKKYKNKT [YGR119C/NUP57] | 3.15 ± 0.11 | 3.24 ± 0.087 | 3.16 ± 0.071 | 3.1 ± 0.096 |
| GFSTGIGDTIADGPTMR [RPO21] | 2.3 ± 0.13 | 3.15 ± 0.17 | 3.03 ± 0.094 | 2.99 ± 0.15 |
| KKINAKEKLIGWYHSGP [RPN8] | 2.91 ± 0.085 | 3.13 ± 0.096 | 3.33 ± 0.052 | 3.13 ± 0.06 |
| AGQNATVAVMSYSGYDI [RET1] | 1.32 ± 0.039 | 1.38 ± 0.045 | 1.33 ± 0.086 | 1.66 ± 0.036 |
| GQVVLTPLTFALPRGAR [RPL14A] | 1.5 ± 0.074 | 1.55 ± 0.071 | 1.18 ± 0.11 | 1.89 ± 0.073 |
| KQRLDLARQVKLLLLNT [YIL149C/MLP2] | 2.56 ± 0.059 | 2.15 ± 0.058 | 1.98 ± 0.092 | 1.88 ± 0.034 |
